From patent publication US20220010021A1 (Sanofi, published 2022)

Biological target: human FGFR1c + KLB receptor complex on HEK293 iLite FGF21 reporter cells (human, UniProt P11362 22-822; Q86Z14 1-1044)
Assay: cell-based or functional assay

Chain of human FGFR1c + KLB receptor complex on HEK293 iLite FGF21 reporter cells (P11362 22-822, chain 1 of 2): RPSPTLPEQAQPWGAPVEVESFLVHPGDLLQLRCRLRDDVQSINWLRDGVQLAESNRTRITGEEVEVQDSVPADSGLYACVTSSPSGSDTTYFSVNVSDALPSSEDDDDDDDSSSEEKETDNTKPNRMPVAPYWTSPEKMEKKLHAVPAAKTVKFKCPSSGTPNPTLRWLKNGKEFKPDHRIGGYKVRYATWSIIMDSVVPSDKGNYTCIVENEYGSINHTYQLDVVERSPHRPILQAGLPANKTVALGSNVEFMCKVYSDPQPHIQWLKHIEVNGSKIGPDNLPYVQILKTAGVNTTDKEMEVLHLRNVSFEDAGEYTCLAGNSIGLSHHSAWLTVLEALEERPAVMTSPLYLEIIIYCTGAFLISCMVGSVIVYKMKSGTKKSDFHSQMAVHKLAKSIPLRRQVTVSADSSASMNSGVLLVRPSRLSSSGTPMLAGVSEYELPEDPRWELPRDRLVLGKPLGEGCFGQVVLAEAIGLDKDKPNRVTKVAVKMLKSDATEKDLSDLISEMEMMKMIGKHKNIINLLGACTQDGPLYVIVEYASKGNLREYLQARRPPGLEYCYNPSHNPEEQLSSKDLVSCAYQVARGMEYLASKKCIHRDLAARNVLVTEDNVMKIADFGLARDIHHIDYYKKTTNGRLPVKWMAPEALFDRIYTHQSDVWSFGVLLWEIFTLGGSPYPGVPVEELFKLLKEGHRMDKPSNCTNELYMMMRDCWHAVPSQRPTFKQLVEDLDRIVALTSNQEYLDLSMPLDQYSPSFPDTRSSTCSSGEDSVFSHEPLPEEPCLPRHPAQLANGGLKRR
Chain of human FGFR1c + KLB receptor complex on HEK293 iLite FGF21 reporter cells (Q86Z14 whole entry, chain 2 of 2): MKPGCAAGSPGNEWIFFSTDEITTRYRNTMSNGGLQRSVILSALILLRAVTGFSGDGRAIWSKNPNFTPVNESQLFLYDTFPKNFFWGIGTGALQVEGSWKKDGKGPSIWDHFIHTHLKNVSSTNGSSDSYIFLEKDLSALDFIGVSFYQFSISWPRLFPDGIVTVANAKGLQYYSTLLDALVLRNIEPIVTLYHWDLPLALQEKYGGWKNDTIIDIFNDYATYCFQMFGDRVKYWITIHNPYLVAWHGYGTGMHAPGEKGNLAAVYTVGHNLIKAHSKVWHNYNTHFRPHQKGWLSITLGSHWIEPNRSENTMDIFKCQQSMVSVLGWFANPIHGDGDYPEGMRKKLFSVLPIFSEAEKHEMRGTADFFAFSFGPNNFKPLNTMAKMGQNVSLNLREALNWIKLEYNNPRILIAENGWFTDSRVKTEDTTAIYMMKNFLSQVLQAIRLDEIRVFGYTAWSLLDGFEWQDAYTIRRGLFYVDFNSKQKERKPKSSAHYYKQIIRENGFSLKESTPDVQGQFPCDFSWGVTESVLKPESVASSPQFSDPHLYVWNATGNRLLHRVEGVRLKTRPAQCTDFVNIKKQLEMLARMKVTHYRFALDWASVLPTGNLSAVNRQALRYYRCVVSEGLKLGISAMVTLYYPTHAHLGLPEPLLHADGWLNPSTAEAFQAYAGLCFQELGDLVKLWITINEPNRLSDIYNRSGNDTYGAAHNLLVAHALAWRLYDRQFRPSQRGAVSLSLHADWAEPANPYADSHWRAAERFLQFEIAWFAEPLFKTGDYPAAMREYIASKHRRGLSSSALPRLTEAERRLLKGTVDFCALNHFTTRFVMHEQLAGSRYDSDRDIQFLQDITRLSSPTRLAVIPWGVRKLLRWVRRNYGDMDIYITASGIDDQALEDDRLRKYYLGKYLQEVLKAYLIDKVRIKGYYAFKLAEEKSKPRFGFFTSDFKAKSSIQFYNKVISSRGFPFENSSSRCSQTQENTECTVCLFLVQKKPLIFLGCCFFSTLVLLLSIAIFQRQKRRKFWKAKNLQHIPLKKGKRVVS

Binder	EC50 [nM]	Emax [%]
Ab0181 (antibody, IgG4, V domains shown) VH: not shown VL: SYVLTQPPSVSVAPGQTARITCGGNNIGSESVHWYQQKPGQAPVLVVYYDSDRPSGIPERFSGSNSGNTATLTISRVEAGDEADYYCQVWDGNSDHVVFGGGTKLTVLG	0.03	2110
Ab0206 (antibody, IgG4, V domains shown) VH: QVTLKESGPVLVKPTETLTLTCTVSGFSLNNARVGVSWIRQPPGKALEWLAHIFSNDEKSYSTSLKSRLTISKDTSKSQVVLTMTNMDPVDTATYYCARSVVTGGYYYEGMDVWGQGTTVTVSS VL: SYVLTQPPSVSVAPGQTARITCGGNNIGSESVHWYQQKPGQAPVLVVYDDSDRPSGIPERFSGSNSGNTATLTISRVEAGDEADYYCQVWDGNSEHVVFGGGTKLTVLG	0.69	2640
Ab0300 (antibody, IgG4, V domains shown) VH: QVTLKESGPVLVKPTETLTLTCTVSGFSLNNARVGVSWIRQPPGKALEWLAHIFSNDEKSYSTSLKSRLTISKDTSKSQVVLTMTNMDPVDTATYYCARSVVTGGYYYEGMDVWGQGTTVTVSS VL: SYVLTQPPSVSVAPGQTARITCGGNNIGSESVHWYQQKPGQAPVLVVYYDSDRPSGIPERFSGSNSGNTATLTISRVEAGDEADYYCQVWTGNSDHVVFGGGTKLTVLG	2.63	605
Ab0192 (antibody, IgG4, V domains shown) VH: not shown VL: SYVLTQPPSVSVAPGQTARITCGGNNIGSESVHWYQQKPGQAPVLVVYDDSDRPSGIPERFSGSNSGNTATLTISRVEAGDEADYYCQVWDGNSEHVVFGGGTKLTVLG	3.67	1610
Ab0185 (antibody, IgG4, V domains shown) VH: not shown VL: SYVLTQPPSVSVAPGQTARITCGGNNIGSESVHWYQQKPGQAPVLVVYDDSDRPSGIPERFSGSNSGNTATLTISRVEAGDEADYYCQVWDGNSEHVVFGGGTKLTVLG	0.06	2350
Ab0199 (antibody, IgG4, V domains shown) VH: not shown VL: SYVLTQPPSVSVAPGQTARITCGGNNIGSESVHWYQQKPGQAPVLVVYDDSDRPSGIPERFSGSNSGNTATLTISRVEAGDEADYYCQVWDGNSEHVVFGGGTKLTVLG	> 100	736
Ab0299 (antibody, IgG4, V domains shown) VH: QVTLKESGPVLVKPTETLTLTCTVSGFSLNNARVGVSWIRQPPGKALEWLAHIFSNDEKSYSTSLKSRLTISKDTSKSQVVLTMTNMDPVDTATYYCARSVVTGGYYYEGMDVWGQGTTVTVSS VL: SYVLTQPPSVSVAPGQTARITCGGSNIGSESVHWYQQKPGQAPVLVVYDDSDRPSGIPERFSGSNSGNTATLTISRVEAGDEADYYCQVWTGNSDHVVFGGGTKLTVLG	0.1	1240
Ab0213 (antibody, IgG4, V domains shown) VH: not shown VL: SYVLTQPPSVSVAPGQTARITCGGNNIGSESVHWYQQKPGQAPVLVVYDDSDRPSGIPERFSGSNSGNTATLTISRVEAGDEADYYCQVWDGNSEHVVFGGGTKLTVLG	> 100	122
Ab0209 (antibody, IgG4, V domains shown) VH: not shown VL: SYVLTQPPSVSVAPGQTARITCGGNNIGSESVHWYQQKPGQAPVLVVYYDSDRPSGIPERFSGSNSGNTATLTISRVEAGDEADYYCQVWDGNSDHVVFGGGTKLTVLG	15.3	1960
Ab0301 (antibody, IgG4, V domains shown) VH: QVTLKESGPVLVKPTETLTLTCTVSGFSLNNARVGVSWIRQPPGKALEWLAHIFSNDEKSYSTSLKSRLTISKDTSKSQVVLTMTNMDPVDTATYYCARSVVTGGYYYEGMDVWGQGTTVTVSS VL: SYVLTQPPSVSVAPGQTARITCGGSNIGSESVHWYQQKPGQAPVLVVYYDSDRPSGIPERFSGSNSGNTATLTISRVEAGDEADYYCQVWTGNSDHVVFGGGTKLTVLG	21.5	697
Ab0237 (antibody, IgG4, V domains shown) VH: not shown VL: SYVLTQPPSVSVAPGQTARITCGGNNIGSESVHWYQQKPGQAPVLVVYDDSDRPSGIPERFSGSNSGNTATLTISRVEAGDEADYYCQVWDGNSAHVVFGGGTKLTVLG	> 100	667
Ab0210 (antibody, IgG4, V domains shown) VH: not shown VL: SYVLTQPPSVSVAPGQTARITCGGNNIGSESVHWYQQKPGQAPVLVVYDESDRPSGIPERFSGSNSGNTATLTISRVEAGDEADYYCQVWDGNSDHVVFGGGTKLTVLG	5.31	2390
Ab0238 (antibody, IgG4, V domains shown) VH: not shown VL: SYVLTQPPSVSVAPGQTARITCGGNNIGSESVHWYQQKPGQAPVLVVYDDSDRPSGIPERFSGSNSGNTATLTISRVEAGDEADYYCQVWDGNSSHVVFGGGTKLTVLG	–	856
Ab0211 (antibody, IgG4, V domains shown) VH: not shown VL: SYVLTQPPSVSVAPGQTARITCGGNNIGSESVHWYQQKPGQAPVLVVYDDSDRPSGIPERFSGSNSGNTATLTISRVEAGDEADYYCQVWTGNSDHVVFGGGTKLTVLG	12	1600
Ab0220 (antibody, IgG4, V domains shown) VH: not shown VL: SYVLTQPPSVSVAPGQTARITCGGNNIGSESVHWYQQKPGQAPVLVVYDDSDRPSGIPERFSGSNSGNTATLTISRVEAGDEADYYCQVWDGNSEHVVFGGGTKLTVLG	22.2	1190
Ab0224 (antibody, IgG4, V domains shown) VH: not shown VL: SYVLTQPPSVSVAPGQTARITCGGNNIGSESVHWYQQKPGQAPVLVVYADSDRPSGIPERFSGSNSGNTATLTISRVEAGDEADYYCQVWDGNSDHVVFGGGTKLTVLG	0.05	2260

The remaining lines, values ahead:

EC50 [nM]	Emax [%]	Binder
0.04	1130	Ab0313 (antibody, IgG4, V domains shown) VH: QVTLKESGPVLVKPTETLTLTCTVSGFSLNNARVGVSWIRQPPGKALEWLAHIFSNDEKSYSTSLKSRLTISKDTSKSQVVLTMTNMDPVDTATYYCARSVVTGGYYYEGMDVWGQGTTVTVSS VL: SYVLTQPPSVSVAPGQTARITCGGNNIGSESVHWYQQKPGQAPVLVVYDDSDRPSGIPERFSGSNSGNTATLTISRVEAGDEADYYCQVWTGESDHVVFGGGTKLTVLG
11.4	686	Ab0304 (antibody, IgG4, V domains shown) VH: QVTLKESGPVLVKPTETLTLTCTVSGFSLNNARVGVSWIRQPPGKALEWLAHIFSNDEKSYSTSLKSRLTISKDTSKSQVVLTMTNMDPVDTATYYCARSVVTGGYYYEGMDVWGQGTTVTVSS VL: SYVLTQPPSVSVAPGQTARITCGGNNIGSESVHWYQQKPGQAPVLVVYYESDRPSGIPERFSGSNSGNTATLTISRVEAGDEADYYCQVWTGNSDHVVFGGGTKLTVLG
3.94	795	Ab0302 (antibody, IgG4, V domains shown) VH: QVTLKESGPVLVKPTETLTLTCTVSGFSLNNARVGVSWIRQPPGKALEWLAHIFSNDEKSYSTSLKSRLTISKDTSKSQVVLTMTNMDPVDTATYYCARSVVTGGYYYEGMDVWGQGTTVTVSS VL: SYVLTQPPSVSVAPGQTARITCGGNNIGSESVHWYQQKPGQAPVLVVYDESDRPSGIPERFSGSNSGNTATLTISRVEAGDEADYYCQVWTGNSDHVVFGGGTKLTVLG
19.2	809	Ab0303 (antibody, IgG4, V domains shown) VH: QVTLKESGPVLVKPTETLTLTCTVSGFSLNNARVGVSWIRQPPGKALEWLAHIFSNDEKSYSTSLKSRLTISKDTSKSQVVLTMTNMDPVDTATYYCARSVVTGGYYYEGMDVWGQGTTVTVSS VL: SYVLTQPPSVSVAPGQTARITCGGSNIGSESVHWYQQKPGQAPVLVVYDESDRPSGIPERFSGSNSGNTATLTISRVEAGDEADYYCQVWTGNSDHVVFGGGTKLTVLG
> 100	–	Ab0386 (antibody, IgG4, V domains shown) VH: QVTLKESGPVLVKPTETLTLTCTVSGFSLNNARVGVSWIRQPPGKALEWLAHIWSNDEKSYSTSLKSRLTISKDTSKSQVVLTMTNMDPVDTATYYCARSVVTGGYYYEGMDVWGQGTTVTVSS VL: SYVLTQPPSVSVAPGQTARITCGGNNIGSESVHWYQQKPGQAPVLVVYDDSDRPSGIPERFSGSNSGNTATLTISRVEAGDEADYYCQVFDGNSSHVVFGGGTKLTVLG
1.46	493	Ab0350 (antibody, IgG4, V domains shown) VH: QVTLKESGPVLVKPTETLTLTCTVSGFSLNNARVGVSWIRQPPGKALEWLAHIFSNDEKSYSTSLKSRLTISKDTSKSQVVLTMTNMDPVDTATYYCARSVVTGGYYYEGMDVWGQGTTVTVSS VL: SYVLTQPPSVSVAPGQTARITCGGSNIGSESVHWYQQKPGQAPVLVVYEESDRPSGIPERFSGSNSGNTATLTISRVEAGDEADYYCQVWAGSSDHVVFGGGTKLTVLG
0.15	932	Ab0330 (antibody, IgG4, V domains shown) VH: QVTLKESGPVLVKPTETLTLTCTVSGFSLNNARVGVSWIRQPPGKALEWLAHIFSNDEKSYSTSLKSRLTISKDTSKSQVVLTMTNMDPVDTATYYCARSVVTGGYYYEGMDVWGQGTTVTVSS VL: SYVLTQPPSVSVAPGQTARITCGGSNIGSESVHWYQQKPGQAPVLVVYSESDRPSGIPERFSGSNSGNTATLTISRVEAGDEADYYCQVWAGESDHVVFGGGTKLTVLG
0.3	674	Ab0415 (antibody, IgG4, V domains shown) VH: QVTLKESGPVLVKPTETLTLTCTVSGFSLNNARVGVSWIRQPPGKALEWLAHIFSNDEKSYSTSLKSRLTISKDTSKSQVVLTMTNMDPVDTATYYCARSVVTGGYYYEGMDVWGQGTTVTVSS VL: SYVLTQPPSVSVAPGQTARITCGGSNIGSESVHWYQQKPGQAPVLVVYYESDRPSGIPERFSGSNSGNTATLTISRVEAGDEADYYCQVWAGESDHVVFGGGTKLTVLG
0.35	4000	human FGF21 (ligand) GHPIPDSSPLLQFGGQVRQRYLYTDDAQQTEAHLEIREDGTVGGAADQSPESLLQLKALKPGVIQILGVKTSRFLCQRPDGALYGSLHFDPEACSFRELLLEDGYNVYQSEAHGLPLHLPGNKSPHRDPAPRGPARFLPLPGLPPAPPEPPGILAPQPPDVGSSDPLSMVGPSQGRSPSYAS
